Where two headings read alike, the source gives them in different places.

Turning to cSrc: Y416F, the enzymatic_activity result (phosphorylation at Y416) was “abolishes”. In the case of cSrc: Y527F, the enzymatic_activity result (phosphorylation at Y527) was “increases”.

The record behind these values is article PMC5216914.
